According to patent US20230374526A1, “FORSKOLIN-INDUCIBLE PROMOTERS AND HYPOXIA-INDUCIBLE PROMOTERS” (ASKLEPIOS BIOPHARMACEUTICAL, INC., priority 2020, published 2023):

B1: HYBN-TATAm6a: hypoxia-inducible promoter, SEQ ID NO: 147; 6 HRE3 elements, TATAm6a (nucleic acid)
DNA: AATAAAATATCTTTATTTTCATTACATCTGTGTGTTGGTTTTTTGTGTGACCTTGAGTACGTGCGTCTCTGCACGTATGGATAAACCTTGAGTACGTGCGTCTCTGCACGTATGTGCGTACCTTGAGTACGTGCGTCTCTGCACGTATGGATAAACCTTGAGTACGTGCGTCTCTGCACGTATGTGCGTACCTTGAGTACGTGCGTCTCTGCACGTATGGATAAACCTTGAGTACGTGCGTCTCTGCACGTATGTATAAAAGGCAGAGCTCGTTTAGTGAACCGAAGCTTGGACTAAAGCGGACTTGTCTCGAG
modifications: Synp-HYBNTATAm6a
notes: 6 HRE3 elements, TATAm6a
B2: HYBN-minTk: hypoxia-inducible promoter, SEQ ID NO: 143; 6 HRE3 elements, MinTK (nucleic acid)
DNA: AATAAAATATCTTTATTTTCATTACATCTGTGTGTTGGTTTTTTGTGTGACCTTGAGTACGTGCGTCTCTGCACGTATGGATAAACCTTGAGTACGTGCGTCTCTGCACGTATGTGCGTACCTTGAGTACGTGCGTCTCTGCACGTATGGATAAACCTTGAGTACGTGCGTCTCTGCACGTATGTGCGTACCTTGAGTACGTGCGTCTCTGCACGTATGGATAAACCTTGAGTACGTGCGTCTCTGCACGTATGTTCGCATATTAAGGTGACGCGTGTGGCCTCGAACACCGAGCGACCCTGCAGCGACCCGCTTAA
modifications: Synp-HYBNMinTK
notes: 6 HRE3 elements, MinTK
B3: HYBN-C53: hypoxia-inducible promoter, SEQ ID NO: 142; 6 HRE3 elements, CMV53 (nucleic acid)
DNA: AATAAAATATCTTTATTTTCATTACATCTGTGTGTTGGTTTTTTGTGTGACCTTGAGTACGTGCGTCTCTGCACGTATGGATAAACCTTGAGTACGTGCGTCTCTGCACGTATGTGCGTACCTTGAGTACGTGCGTCTCTGCACGTATGGATAAACCTTGAGTACGTGCGTCTCTGCACGTATGTGCGTACCTTGAGTACGTGCGTCTCTGCACGTATGGATAAACCTTGAGTACGTGCGTCTCTGCACGTATGCAACAAAATGTCGTAACAAGGGCGGTAGGCGTGTACGGTGGGAGGTCTATATAAGCAGAGCTCGTTTAGTGAACCG
modifications: Synp-HYBNC53
notes: 6 HRE3 elements, CMV53
B4: HYBN-MLP: hypoxia-inducible promoter, SEQ ID NO: 144; 6 HRE3 elements, MLP (nucleic acid)
DNA: AATAAAATATCTTTATTTTCATTACATCTGTGTGTTGGTTTTTTGTGTGACCTTGAGTACGTGCGTCTCTGCACGTATGGATAAACCTTGAGTACGTGCGTCTCTGCACGTATGTGCGTACCTTGAGTACGTGCGTCTCTGCACGTATGGATAAACCTTGAGTACGTGCGTCTCTGCACGTATGTGCGTACCTTGAGTACGTGCGTCTCTGCACGTATGGATAAACCTTGAGTACGTGCGTCTCTGCACGTATGGGGGGGCTATAAAAGGGGGTGGGGGCGTTCGTCCTCACTCT
modifications: Synp- HYBNMLP
notes: 6 HRE3 elements, MLP
B5: HYBN-pJB42: hypoxia-inducible promoter, SEQ ID NO: 146; 6 HRE3 elements, pJB42 (nucleic acid)
DNA: AATAAAATATCTTTATTTTCATTACATCTGTGTGTTGGTTTTTTGTGTGACCTTGAGTACGTGCGTCTCTGCACGTATGGATAAACCTTGAGTACGTGCGTCTCTGCACGTATGTGCGTACCTTGAGTACGTGCGTCTCTGCACGTATGGATAAACCTTGAGTACGTGCGTCTCTGCACGTATGTGCGTACCTTGAGTACGTGCGTCTCTGCACGTATGGATAAACCTTGAGTACGTGCGTCTCTGCACGTATGCTGACAAATTCAGTATAAAAGCTTGGGGCTGGGGCCGAGCACTGGGGACTTTGAGGGTGGCCAGGCCAGCGTAGGAGGCCAGCGTAGGATCCTGCTGGGAGCGGGGAACTGAGGGAAGCGACGCCGAGAAAGCAGGCGTACCACGGAGGGAGAGAAAAGCTCCGGAAGCCCAGCAGCG
modifications: Synp-HYBNpJB42
notes: 6 HRE3 elements, pJB42
B6: HYBN-SV: hypoxia-inducible promoter, SEQ ID NO: 145; 6 HRE3 elements, SV40 (nucleic acid)
DNA: AATAAAATATCTTTATTTTCATTACATCTGTGTGTTGGTTTTTTGTGTGACCTTGAGTACGTGCGTCTCTGCACGTATGGATAAACCTTGAGTACGTGCGTCTCTGCACGTATGTGCGTACCTTGAGTACGTGCGTCTCTGCACGTATGGATAAACCTTGAGTACGTGCGTCTCTGCACGTATGTGCGTACCTTGAGTACGTGCGTCTCTGCACGTATGGATAAACCTTGAGTACGTGCGTCTCTGCACGTATGTGCATCTCAATTAGTCAGCAACCATAGTCCCGCCCCTAACTCCGCCCATCCCGCCCCTAACTCCGCCCAGTTCCGCCCATTCTCCGCCCCATCGCTGACTAATTTTTTTTATTTATGCAGAGGCCGAGGCCGCCTCGGCCTCTGAGCTATTCCAGAAGTAGTGAGGAGGCTTTTTTGGAGGCCTAGGCTTTTGCAAAAAGCTT
modifications: Synp-HYBNSV
notes: 6 HRE3 elements, SV40
B7: HYBN-YB: hypoxia-inducible promoter, SEQ ID NO: 140; 6 HRE3 elements spaced by 5 bp spacers, YB-TATA (nucleic acid)
DNA: AATAAAATATCTTTATTTTCATTACATCTGTGTGTTGGTTTTTTGTGTGACCTTGAGTACGTGCGTCTCTGCACGTATGGATAAACCTTGAGTACGTGCGTCTCTGCACGTATGTGCGTACCTTGAGTACGTGCGTCTCTGCACGTATGGATAAACCTTGAGTACGTGCGTCTCTGCACGTATGTGCGTACCTTGAGTACGTGCGTCTCTGCACGTATGGATAAACCTTGAGTACGTGCGTCTCTGCACGTATGTCTAGAGGGTATATAATGGGGGCCA
modifications: Synp-HYPN
notes: 6 HRE3 elements spaced by 5 bp spacers, YB-TATA
B8: HYBN-C: hypoxia-inducible promoter, SEQ ID NO: 141; 6 HRE3 elements, CMV-MP short (nucleic acid)
DNA: AATAAAATATCTTTATTTTCATTACATCTGTGTGTTGGTTTTTTGTGTGACCTTGAGTACGTGCGTCTCTGCACGTATGGATAAACCTTGAGTACGTGCGTCTCTGCACGTATGTGCGTACCTTGAGTACGTGCGTCTCTGCACGTATGGATAAACCTTGAGTACGTGCGTCTCTGCACGTATGTGCGTACCTTGAGTACGTGCGTCTCTGCACGTATGGATAAACCTTGAGTACGTGCGTCTCTGCACGTATGGCGATTAATCCATATGCGTAGGCGTGTACGGTGGGAGGTCTATATAAGCAGAGCT
modifications: Synp-HYBNC
notes: 6 HRE3 elements, CMV-MP short

tested on: HEK293 cells; assay: Luciferase expression from new HRE3 hypoxia-inducible promoter designs, normoxia vs 24 h hypoxia; type: cell-based, human; settings: HEK293, N=3
Source text: Promoters were designed using HRE3 (SEQ ID NO: 9) described above. The promoters were designed around a base enhancer element: • […]gataa[…] GTATGtgcgt[…]gataaACCTTGAGTACGTGCGT CTCTGCACGTATGtgcgt[…]gataaACCTTGAGT […] (SEQ ID NO: 139) • HRE3 is in capital letters
This enhancer was operably linked with the following minimal promoters, with a 5 bp spacer between the enhancer and the minimal promoter: • YB-Tata (HYPN) • Short CMV (HYBNC) • CMV53 (HYBNC53) • MinTK (HYBNMinTK) • 30 MLP (HYBNMLP) • SV40 (HYBNSV) • pJB42 (HYBNpJB42)
This enhancer was also operably liked with another minimal promoter named TATA-m6A (HYBNTATAm6a): • […]aagcttggactaaagcggacttgtctcgag (SEQ ID NO: 101)
These new designs were transfected in HEK293 cells as described above and the results of their expression in hypoxia and normoxia are shown in FIG. 15.

Molecule | Luciferase activity in normoxia | Luciferase expression after 24 hours in hypoxia (vs normoxia)
B1 | almost no luciferase activity | induced
B2 | almost no luciferase activity | induced
B3 | almost no luciferase activity | induced
B4 | almost no luciferase activity | induced
B5 | almost no luciferase activity | induced
B6 | almost no luciferase activity | induced
B7 | almost no luciferase activity | induced
B8 | almost no luciferase activity | induced
